This note sets out measurements from paper PMC5690661, “The PrpF protein of Shewanella oneidensis MR-1 catalyzes the isomerization of 2-methyl-cis-aconitate during the catabolism of propionate via the AcnD-dependent 2-methylcitric acid cycle” (PLoS ONE, 2017).

The target in one data set is T1, SoPrpF (Shewanella oneidensis, UniProt Q8EJW4).
T1 construct: gene prpF; recombinant from pPRP196 (pTEV4, N-terminal TEV-cleavable H6 tag), purified as in earlier work; homodimer
In words: HPLC time course; coupled aconitase assay. Format: biochemical. The note with it: substrate is the SoAcnD product of 2-methylcitrate; Tris-HCl 50 mM pH 8.0, KCl 100 mM.

The next data set concerns the target T2, SePrpD (Salmonella enterica, UniProt P74840).
T2 construct: gene prpD; recombinant, His-tagged, purified from E. coli
T2 sequence (P74840 1-483): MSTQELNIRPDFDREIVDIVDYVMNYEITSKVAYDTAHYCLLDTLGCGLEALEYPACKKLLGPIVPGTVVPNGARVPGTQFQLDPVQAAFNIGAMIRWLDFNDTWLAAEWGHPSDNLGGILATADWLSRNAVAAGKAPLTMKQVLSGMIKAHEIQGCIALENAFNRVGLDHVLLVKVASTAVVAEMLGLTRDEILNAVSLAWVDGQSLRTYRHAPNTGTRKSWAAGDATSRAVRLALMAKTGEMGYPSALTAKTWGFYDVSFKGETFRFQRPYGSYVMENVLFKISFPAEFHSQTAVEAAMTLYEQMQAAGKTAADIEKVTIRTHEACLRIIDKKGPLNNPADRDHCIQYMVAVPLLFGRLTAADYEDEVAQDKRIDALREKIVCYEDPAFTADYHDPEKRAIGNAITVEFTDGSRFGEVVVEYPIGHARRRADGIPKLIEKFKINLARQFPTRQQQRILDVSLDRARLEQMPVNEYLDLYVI
In words: HPLC of reaction products. In kind it is biochemical. The note with it: 5 mM substrate, Tris-HCl 90 mM pH 8.0, 37°C, 1.5 h.

Data set [1] has as its system C/C(C(=O)O)=C(\CC(=O)O)C(=O)O. Nature of the data set: purified protein. As to conditions: Tris-HCl 50 mM pH 8.0, KCl 100 mM, 37°C, Fe/S-reactivated enzyme.
Substrate in the data set “purified protein”: O=C(O)/C=C(/CC(=O)O)C(=O)O
In words: purified protein. The note with it: Tris-HCl 50 mM pH 8.0, KCl 100 mM, 37°C, Fe/S-reactivated enzyme.

Data set [2] concerns the molecule itself. In words: crystal structure; hanging drop vapor diffusion, MES 100 mM pH 6.0, sodium malonate 136 mM, PEG 4K 15% w/v, room temperature; space group P2(1), two chains in the asymmetric unit related by a non-crystallographic twofold axis; 1.22 Å.

T1 sequence (Q8EJW4 whole entry): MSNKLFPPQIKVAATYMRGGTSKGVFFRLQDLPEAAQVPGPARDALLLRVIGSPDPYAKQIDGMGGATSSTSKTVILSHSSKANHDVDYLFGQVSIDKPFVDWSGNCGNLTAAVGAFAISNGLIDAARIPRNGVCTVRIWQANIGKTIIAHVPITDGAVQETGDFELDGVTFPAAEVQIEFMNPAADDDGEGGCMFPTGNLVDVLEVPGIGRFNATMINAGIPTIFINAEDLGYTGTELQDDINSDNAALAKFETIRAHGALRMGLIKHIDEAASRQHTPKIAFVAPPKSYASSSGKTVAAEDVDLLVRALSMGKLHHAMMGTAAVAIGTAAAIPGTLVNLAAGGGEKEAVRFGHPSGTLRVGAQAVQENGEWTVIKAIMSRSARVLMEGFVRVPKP

`C/C(C(=O)O)=C(\CC(=O)O)C(=O)O` [2-methyl-cis-aconitate]: the “HPLC time course; coupled aconitase assay” value on SoPrpF is “SoPrpF converted the SoAcnD reaction product into 2-methyl-cis-aconitate over time”.
Regarding `CC(C(=O)O)C(O)(CC(=O)O)C(=O)O` (stereo not shown) [2-methylcitrate], the “HPLC of reaction products” value on SePrpD is “SePrpD synthesized 2-methyl-cis-aconitate from 2-methylcitrate”.
The Km is the concentration of substrate that gives half-maximal velocity. A word on the Vmax: it is the rate approached at saturating substrate. As a reminder, the kcat is the number of substrate molecules converted per active site and unit of time at saturation. As usually defined, the kcat/Km is the turnover number divided by the Michaelis constant. In the case of “SeAcnA (Salmonella enterica subsp. enterica serovar Typhimurium str. LT2)”, in data set [1], the Michaelis-Menten constant (Km) is 210 ± 35 µM, the Vmax came out at 50 µM/min, the kcat turned out to be 11.8 ± 0.7 s⁻¹ and the kcat/Km worked out at 56700 M⁻¹ s⁻¹.
Taken in the same sequence, the figures for “SeAcnB (Salmonella enterica subsp. enterica serovar Typhimurium str. LT2)” were 208 ± 39 µM, 10 µM/min, 6.6 ± 0.667 s⁻¹ and 31700 M⁻¹ s⁻¹.

B1: SeAcnB (Salmonella enterica subsp. enterica serovar Typhimurium str. LT2) (protein)
chain: MLEEYRKHVAERAAQGIVPKPLDATQMAALVELLKTPPVGEEEFLLDLLINRVPPGVDEAAYVKAGFLAAVAKGDTTSPLVSPEKAIELLGTMQGGYNIHPLIDALDDAKLAPIAAKALSHTLLMFDNFYDVEEKAKAGNEYAKQVMQSWADAEWFLSRPPLAEKITVTVFKVTGETNTDDLSPAPDAWSRPDIPLHAQAMLKNAREGIEPDQPGVVGPIKQIEALQKKGYPLAYVGDVVGTGSSRKSATNSVLWFMGDDIPNVPNKRGGGLCLGGKIAPIFFNTMEDAGALPIEVDVSNLNMGDVIDVYPYKGEVRNHETGELLATFELKTDVLIDEVRAGGRIPLIIGRGLTTKAREALGLPHSDVFRQAKDVAESSRGFSLAQKMVGRACGVKGIRPGAYCEPKMTSVGSQDTTGPMTRDELKDLACLGFSADLVMQSFCHTAAYPKPVDVTTHHTLPDFIMNRGGVSLRPGDGVIHSWLNRMLLPDTVGTGGDSHTRFPIGISFPAGSGLVAFAAATGVMPLDMPESVLVRFKGKMQPGITLRDLVHAIPLYAIKQGLLTVEKKGKKNIFSGRILEIEGLPDLKVEQAFELTDASAERSAAGCTIKLNKEPIVEYLTSNIVLLKWMIAEGYGDRRTLERRIQGMEKWLADPQLLEADADAEYAAVIDIDLADIKEPILCAPNDPDDARLLSDVQGEKIDEVFIGSCMTNIGHFRAAGKLLDNHKGQLPTRLWVAPPTRMDAAQLTEEGYYSVFGKSGARIEIPGCSLCMGNQARVADGATVVSTSTRNFPNRLGTGANVFLASAELAAVAALIGKLPTPEEYQTYVAQVDKTAVDTYRYLNFDQLSQYTEKADGVIFQTAV
On to B1, for which, in “purified protein”, the Km amounted to 17 ± 3 µM, the Vmax stood at 21 µM/min, the kcat came out at 34.9 ± 1.67 s⁻¹ and the kcat/Km stood at 2.05e+06 M⁻¹ s⁻¹.

B2: SeAcnA (Salmonella enterica subsp. enterica serovar Typhimurium str. LT2) (protein)
chain: MSSTLREASKDTLQAKDKTYHYYSLPLAAKSLGDIARLPKSLKVLLENLLRWQDGESVTDEDIQALAGWLKNAHADREIAWRPARVLMQDFTGVPAVVDLAAMREAVKRLGGDTSKVNPLSPVDLVIDHSVTVDHFGDDDAFEENVRLEMERNHERYMFLKWGKQAFSRFSVVPPGTGICHQVNLEYLGKAVWSELQDGEWIAYPDSLVGTDSHTTMINGLGVLGWGVGGIEAEAAMLGQPVSMLIPDVVGFKLTGKLREGITATDLVLTVTQMLRKHGVVGKFVEFYGDGLDSLPLADRATIANMSPEYGATCGFFPIDAITLEYMRLSGRSDDLVELVETYAKAQGMWRNPGDEPVFTSTLELDMGDVEASLAGPKRPQDRVALGDVPKAFAASAELELNTAQRDRQPVDYTMNGQPYQLPDGAVVIAAITSCTNTSNPSVLMAAGLLAKKAVTLGLKRQPWVKASLAPGSKVVSDYLAQAKLTPYLDELGFNLVGYGCTTCIGNSGPLPEPIETAIKKGDLTVGAVLSGNRNFEGRIHPLVKTNWLASPPLVVAYALAGNMNINLATDPLGYDRKGDPVYLKDIWPSAQEIARAVELVSSDMFRKEYAEVFEGTEEWKSIQVESSDTYGWQSDSTYIRLSPFFDEMQAQPAPVKDIHGARILAMLGDSVTTDHISPAGSIKPDSPAGRYLQNHGVERKDFNSYGSRRGNHEVMMRGTFANIRIRNEMLPGVEGGMTRHLPGTEAMSIYDAAMLYQQEKTPLAVIAGKEYGSGSSRDWAAKGPRLLGIRVVIAESFERIHRSNLIGMGILPLEFPQGVTRKTLGLTGEEVIDIADLQNLRPGATIPVTLTRSDGSKETVPCRCRIDTATELTYYQNDGILHYVIRNMLN
Turning to B2, in “purified protein”, the Km was 22 ± 2 µM, the Vmax is 86 µM/min, the kcat is 62.3 ± 1.45 s⁻¹ and the kcat/Km turned out to be 2.83e+06 M⁻¹ s⁻¹.

B3: Shewanella oneidensis MR-1 PrpF K73E variant (SoPrpF^K73E) (enzyme)
chain: MSNKLFPPQIKVAATYMRGGTSKGVFFRLQDLPEAAQVPGPARDALLLRVIGSPDPYAKQIDGMGGATSSTSETVILSHSSKANHDVDYLFGQVSIDKPFVDWSGNCGNLTAAVGAFAISNGLIDAARIPRNGVCTVRIWQANIGKTIIAHVPITDGAVQETGDFELDGVTFPAAEVQIEFMNPAADDDGEGGCMFPTGNLVDVLEVPGIGRFNATMINAGIPTIFINAEDLGYTGTELQDDINSDNAALAKFETIRAHGALRMGLIKHIDEAASRQHTPKIAFVAPPKSYASSSGKTVAAEDVDLLVRALSMGKLHHAMMGTAAVAIGTAAAIPGTLVNLAAGGGEKEAVRFGHPSGTLRVGAQAVQENGEWTVIKAIMSRSARVLMEGFVRVPKP
notes: PrpF (2-methylaconitate isomerase) of Shewanella oneidensis MR-1, with the substitution K73E; prpF+ cloned into pTEV4 (template pPRP196); also called Apo-SoPrpF^K73E; prpF258; source: E. coli, plasmid pPRP221 (pTEV4), IPTG-induced, purified (Maxwell 16 system)
Take B3: the binding result in data set [2] was “binds”.
